The source of these data is the supplement of paper PMC10567573.

Sequences and labels used below:
B1: CRYL1 (parent)
chain: RNALENIRKEMKLLEQAGSLKGSL
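Further: lentivirally expressed fusions sorted by FACS into six bins by GFP to DsRed ratio, PSI derived from sequencing read proportions per bin multiplied by bin number.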

Variants of B1 are the subject of this data set. The data set is described as follows: protein stability index of a GFP-peptide fusion (GPS, HEK-293T) (PSI 1-6); higher = more stable. To be noted: c terminus: a fixed tail appended.
RNALENIRKEMKLLEQAGSLKGPL [S23P]: the protein stability index was 3.56.
Consider RNALENIRKEMKLLEQAGSLKGNL [S23N], for which the protein stability index turned out to be 3.22.
For RNALENIRKEMKLLEQAGSLKGIL [S23I], the protein stability index amounted to 2.45.
Take RNALENIRKEMKLLEQAGSLKGTL [S23T]: the protein stability index stood at 2.8.
As for RNALENIRKEMKLLEQAGSLKGRL [S23R], the protein stability index was 3.07.
The value for RNALENIRKEMKLLEQAGSLKGLL [S23L] was 1.87; that for RNALENIRKEMKLLEQAGSLKGHL [S23H] was 3.12.
For RNALENIRKEMKLLEQAGSLKGEL [S23E], the protein stability index turned out to be 3.84.
Take RNALENIRKEMKLLEQAGSLKGKL [S23K]: the protein stability index turned out to be 3.39.
Consider RNALENIRKEMKLLEQFGSLKGSL [A17F], for which the protein stability index was determined as 2.22.
Consider RNALENIRKEMKLLEQIGSLKGSL [A17I], for which the protein stability index stood at 2.71.
With RNALENIRKEMKLLEQCGSLKGSL [A17C], the protein stability index was 2.48.
On to RNALENIRKEMKLLEQGGSLKGSL [A17G], for which the protein stability index is 3.4.
As for RNALENIRKEMKLLEQMGSLKGSL [A17M], the protein stability index stood at 3.32.
On to RNALENIRKEMKLLEQQGSLKGSL [A17Q], for which the protein stability index is 4.01.
The figure for RNALENIRKEMKLLEQYGSLKGSL [A17Y] is 2.32; for RNALENIRKEMKLLEQLGSLKGSL [A17L] it is 3.18.
Regarding RNALYNIRKEMKLLEQAGSLKGSL [E5Y], the protein stability index worked out at 1.97.
Take RNALVNIRKEMKLLEQAGSLKGSL [E5V]: the protein stability index came to 2.82.
Take RNALLNIRKEMKLLEQAGSLKGSL [E5L]: the protein stability index stood at 2.55.
Consider RNALQNIRKEMKLLEQAGSLKGSL [E5Q], for which the protein stability index was found to be 3.34.
For RNALWNIRKEMKLLEQAGSLKGSL [E5W], the protein stability index was 2.69.
Turning to RNALANIRKEMKLLEQAGSLKGSL [E5A], the protein stability index amounted to 2.68.
The value for RNALFNIRKEMKLLEQAGSLKGSL [E5F] was 2.5.
As to RNALMNIRKEMKLLEQAGSLKGSL [E5M], the protein stability index stood at 3.
For the variant RNALPNIRKEMKLLEQAGSLKGSL [E5P], the protein stability index was found to be 3.7.
Regarding RNALINIRKEMKLLEQAGSLKGSL [E5I], the protein stability index turned out to be 3.57.
As to RNALENIRKEMKLLEKAGSLKGSL [Q16K], the protein stability index is 3.02.
Consider RNALENIRKEMKLLESAGSLKGSL [Q16S], for which the protein stability index came to 2.62.
For RNALENIRKEMKLLEDAGSLKGSL [Q16D], the protein stability index worked out at 4.1.
With RNALENIRKEMKLLEGAGSLKGSL [Q16G], the protein stability index worked out at 3.7.
Turning to RNALENIRKEMKLLECAGSLKGSL [Q16C], the protein stability index turned out to be 3.35.
The figure for RNALENIRKEMKLLEPAGSLKGSL [Q16P] is 3.3; for RNALENIRKEMKLLEWAGSLKGSL [Q16W] it is 2.11.
As for RNALENIREEMKLLEQAGSLKGSL [K9E], the protein stability index was 3.83.
Turning to RNALENIRFEMKLLEQAGSLKGSL [K9F], the protein stability index is 1.95.
For RNALENIRDEMKLLEQAGSLKGSL [K9D], the protein stability index stood at 3.57.
The value for RNALENIRPEMKLLEQAGSLKGSL [K9P] was 3.58; that for RNALENIRTEMKLLEQAGSLKGSL [K9T] was 3.43.
For the variant RNALENIRHEMKLLEQAGSLKGSL [K9H], the protein stability index stood at 2.9.
For the variant RNALENIRKEEKLLEQAGSLKGSL [M11E], the protein stability index worked out at 4.45.
Turning to RNALENIRKEFKLLEQAGSLKGSL [M11F], the protein stability index was found to be 3.13.
Turning to RNALENIRKEWKLLEQAGSLKGSL [M11W], the protein stability index was found to be 2.21.
In the case of RNALENIRKEGKLLEQAGSLKGSL [M11G], the protein stability index came out at 4.
Turning to RNALENIRKEIKLLEQAGSLKGSL [M11I], the protein stability index was found to be 3.24.
For RNALENIRKEYKLLEQAGSLKGSL [M11Y], the protein stability index is 2.92.
As to RNALENIHKEMKLLEQAGSLKGSL [R8H], the protein stability index was 4.05.
Regarding RNALENIWKEMKLLEQAGSLKGSL [R8W], the protein stability index amounted to 2.3.
For RNALENIAKEMKLLEQAGSLKGSL [R8A], the protein stability index was found to be 3.72.
With RNALENIIKEMKLLEQAGSLKGSL [R8I], the protein stability index is 1.84.
Turning to RNALENILKEMKLLEQAGSLKGSL [R8L], the protein stability index came out at 1.65.
For the variant RNALENIDKEMKLLEQAGSLKGSL [R8D], the protein stability index was determined as 4.49.
The figure for RNALENIKKEMKLLEQAGSLKGSL [R8K] is 3.04.
Turning to RNALENARKEMKLLEQAGSLKGSL [I7A], the protein stability index came out at 4.35.
In the case of RNALENPRKEMKLLEQAGSLKGSL [I7P], the protein stability index amounted to 4.22.
In the case of RNALENLRKEMKLLEQAGSLKGSL [I7L], the protein stability index was 2.48.
RNALENCRKEMKLLEQAGSLKGSL [I7C]: the protein stability index amounted to 2.3.
Regarding RNALENYRKEMKLLEQAGSLKGSL [I7Y], the protein stability index came to 3.67.
The figure for RNALENWRKEMKLLEQAGSLKGSL [I7W] is 3.15; for RNALENERKEMKLLEQAGSLKGSL [I7E] it is 4.02; for RNALENDRKEMKLLEQAGSLKGSL [I7D] it is 4.75.
The value for RNALENMRKEMKLLEQAGSLKGSL [I7M] was 3.29; that for RNALENNRKEMKLLEQAGSLKGSL [I7N] was 4.37.
Take RNALENFRKEMKLLEQAGSLKGSL [I7F]: the protein stability index was 2.37.
Regarding RNALENIRKEMKLLEQAVSLKGSL [G18V], the protein stability index was 2.8.
On to RNALENIRKEMKLLEQAFSLKGSL [G18F], for which the protein stability index was found to be 2.13.
On to RNALENIRKEMKLLEQAYSLKGSL [G18Y], for which the protein stability index was 2.12.
The value for RNALENIRKEMKLLEQATSLKGSL [G18T] was 3.39; that for RNALENIRKEMKLLEQAASLKGSL [G18A] was 4; that for RNALENIRKEMKLLEQAMSLKGSL [G18M] was 2.12.
For RNALENIRKEMKLLEQAQSLKGSL [G18Q], the protein stability index worked out at 3.48.
Consider RNALENIRKEMKLLEQAISLKGSL [G18I], for which the protein stability index was found to be 1.98.
The figure for RNALENIRKEMKLLEQAGGLKGSL [S19G] is 3.12; for RNALENIRKEMKLLEQAGRLKGSL [S19R] it is 3.08; for RNALENIRKEMKLLEQAGMLKGSL [S19M] it is 2.56.
With RNALENIRKEMKLLEQAGTLKGSL [S19T], the protein stability index was 3.22.
The figure for RNALENIRKEMKLLEQAGILKGSL [S19I] is 2.62; for RNALENIRKEMKLLEQAGLLKGSL [S19L] it is 2.36.
For RNALENIRKEMKLLEQAGVLKGSL [S19V], the protein stability index turned out to be 2.66.
Turning to RNALENIRKEMKLLEQAGHLKGSL [S19H], the protein stability index is 3.04.
In the case of RNLLENIRKEMKLLEQAGSLKGSL [A3L], the protein stability index is 2.64.
For RNFLENIRKEMKLLEQAGSLKGSL [A3F], the protein stability index worked out at 2.6.
As to RNGLENIRKEMKLLEQAGSLKGSL [A3G], the protein stability index stood at 3.34.
Consider RNDLENIRKEMKLLEQAGSLKGSL [A3D], for which the protein stability index amounted to 3.75.
The figure for RNILENIRKEMKLLEQAGSLKGSL [A3I] is 2.31; for RNKLENIRKEMKLLEQAGSLKGSL [A3K] it is 3.48; for RNNLENIRKEMKLLEQAGSLKGSL [A3N] it is 3.75.
Turning to RNYLENIRKEMKLLEQAGSLKGSL [A3Y], the protein stability index amounted to 2.56.
As to RNRLENIRKEMKLLEQAGSLKGSL [A3R], the protein stability index worked out at 3.98.
For the variant RNELENIRKEMKLLEQAGSLKGSL [A3E], the protein stability index was determined as 2.94.
RNWLENIRKEMKLLEQAGSLKGSL [A3W]: the protein stability index is 2.57.
As to RNALENIRKEMKLLEQAGSLKHSL [G22H], the protein stability index was 2.94.
Regarding RNALENIRKEMKLLEQAGSLKKSL [G22K], the protein stability index came to 4.21.
Regarding RNALENIRKEMKLLEQAGSLKRSL [G22R], the protein stability index amounted to 3.4.
